# In PMC10802294 (bioRxiv, 2024):
# Side chains are listed from the residue outwards. Ends that are not written are not given here. * marks the point of attachment. Biotin = O=C1N[C@H]2[C@H](CS[C@H]2CCCCC(=O)*)N1; RADP = not defined here; Aoa = not defined here
# Key:
# [1] = biological target: MERS-CoV Mac1 protein (WT) (MERS-CoV, UniProt K9N638 1110-1273); test: AlphaScreen or HTRF
# [2] = biological target: SARS-CoV-2 Mac1 protein (WT) (SARS-CoV-2, UniProt P0DTC1 1023-1197); test: AlphaScreen or HTRF
# Chain of MERS-CoV Mac1 protein (WT) (K9N638 1110-1273): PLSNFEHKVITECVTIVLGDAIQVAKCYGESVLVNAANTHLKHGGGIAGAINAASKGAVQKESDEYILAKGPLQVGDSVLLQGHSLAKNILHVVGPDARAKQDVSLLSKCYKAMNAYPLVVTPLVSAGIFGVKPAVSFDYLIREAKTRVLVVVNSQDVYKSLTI
binder,measurement,setting,value
ARTK(Biotin)QTARK([Aoa-RADP])S (reading uncertain) [10 amino acid biotinylated and ADP-ribosylated peptide [ARTK(Bio)QTARK(Aoa-RADP)S]],binding result,[1],binds
same,binding result,[2],binds
